The target of assay [1] is 9His-rsLAAO1 (L-amino acid oxidase from Rhizoctonia solani with nine histidine residues as affinity tag) (Rhizoctonia solani). The assay is described as follows: SEC; native 9His-rsLAAO1 on calibrated Superdex 200 Increase 10/300 GL, 50 mM NaH2PO4 pH 8.2, 300 mM NaCl, 0.3 mL/min; without SDS.
Assay [2] shares this target. The assay is described as follows: SEC; 9His-rsLAAO1 activated with 1.5 mM SDS, added to the protein solution before chromatography; Superdex 200 Increase 10/300 GL, 50 mM NaH2PO4 pH 8.2, 300 mM NaCl.

As for “9His-rsLAAO1 (L-amino acid oxidase from Rhizoctonia solani with nine histidine residues as affinity tag) (enzyme)”, the stoichiometry N in assay [1] and in assay [2] was 2 throughout.

The values are drawn from PMC6149798.
